Tests used:
[1] = biological target: full-length human basigin (human); assay: MST
[2] = biological target: basigin ectodomain (human); assay: MST
[3] = biological target: PfRIPR (Plasmodium falciparum) (UniProt O97302); assay: SPR
[4] = biological target: PfRIPR tail (Plasmodium falciparum) (UniProt O97302); assay: SPR

| Substance | Kd [1] | Kd [2] | Kd [3] | Kd [4] |
| --- | --- | --- | --- | --- |
| PfRH5 (natural protein) | 120 nM | 190 nM | – | – |
| PfCSS-PfPTRAMP complex | – | – | 3000 nM | 3000 nM |
